Results on 9 molecules are retold here after paper PMC10723402.

One data set has as its target Gsx2HD (Mus musculus, UniProt P31316 203-264). In words: ITC. (Isothermal titration calorimetry measures the heat released or taken up as one component is titrated into another.)
Data set [1] has as its target T1, Gsx2 167-305 (Mus musculus, UniProt P31316 167-305). In words: ITC.
The target in data set [2] is T2, Gsx2HD L231E (Mus musculus, UniProt P31316 203-264, L231E). In words: EMSA.
In data set [3] the target is T3, Gsx2HD L216E (Mus musculus, UniProt P31316 203-264, L216E). In words: EMSA. (Mobility shift assays separate free from complexed probe on a gel.)
The target in data set [4] is T4, Gsx2HD S212E (Mus musculus, UniProt P31316 203-264, S212E). In words: EMSA.
Data set [5] concerns the target T2, Gsx2HD L231E. Briefly: EMSA. This is another data set of the same source.
Data set [6] addresses T3, Gsx2HD L216E. Briefly: EMSA. This is another data set of the same source.
The target of data set [7] is T4, Gsx2HD S212E. In words: EMSA. This is another data set of the same source.
For data set [8], the target named is T1, Gsx2 167-305. Briefly: EMSA.
Data set [9] concerns the target T1, Gsx2 167-305. In words: EMSA. The source holds these as a separate data set.
For the next data set, the target named is Gsx2HD I234E (Mus musculus, UniProt P31316 203-264, I234E). Briefly: ITC.

Changes are numbered by the printed parent chain. Read-outs that look alike come from different tables or passages of the source.

T1 sequence (P31316 167-305): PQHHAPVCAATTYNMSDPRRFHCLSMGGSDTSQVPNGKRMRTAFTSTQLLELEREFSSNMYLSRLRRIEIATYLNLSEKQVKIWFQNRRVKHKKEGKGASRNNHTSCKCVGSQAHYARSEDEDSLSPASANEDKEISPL
T4 sequence (P31316 203-264 S212E): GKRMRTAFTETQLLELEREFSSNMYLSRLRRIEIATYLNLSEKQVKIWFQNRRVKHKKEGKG
T2 sequence (P31316 203-264 L231E): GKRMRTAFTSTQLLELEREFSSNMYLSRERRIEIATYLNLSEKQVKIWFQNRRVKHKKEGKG
T3 sequence (P31316 203-264 L216E): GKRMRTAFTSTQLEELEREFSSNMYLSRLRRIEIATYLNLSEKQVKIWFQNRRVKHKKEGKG
Gsx2HD I234E, sequence (P31316 203-264 I234E): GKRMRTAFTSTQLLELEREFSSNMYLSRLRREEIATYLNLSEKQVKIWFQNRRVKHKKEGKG
Gsx2HD, sequence (P31316 203-264): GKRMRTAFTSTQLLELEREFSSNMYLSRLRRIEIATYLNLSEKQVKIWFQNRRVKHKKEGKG

B1: TAATGG (common Q50) monomer site 15mer (dsDNA)
DNA 1: TGAGCTAATGGAAGC
DNA 2: AGCTTCCATTAGCTC
The Kd is the equilibrium constant for the complex coming apart. A low value points to tighter binding. For the molecule B1, the equilibrium dissociation constant (Kd) worked out at 36 nM with Gsx2HD and 143 nM with Gsx2 167-305 [1].

B2: 8bpS dimer probe (dsDNA)
DNA 1: TCCAACTAATTAAAGATTTAATTCGTAGTGCGGGCGTGGCT
DNA 2: CGAATTAAATCTTTAATTAGTTGGA
DNA 3: AGCCACGCCCGCACTA
As for B2, the binding result with Gsx2HD L231E [2], with Gsx2HD L216E [3] and in the data set with Gsx2HD S212E [4] was “binds” in each case.

B3: 7bpS dimer probe (= AAATT spacer probe) (dsDNA)
DNA 1: TCCAACTAATTAAAATTTAATTCGTAGTGCGGGCGTGGCT
DNA 2: CGAATTAAATTTTAATTAGTTGGA
DNA 3: AGCCACGCCCGCACTA
For B3, the binding result with Gsx2HD L231E [5], in the data set with Gsx2HD L216E [6] and in the data set with Gsx2HD S212E [7] was “binds” each time.

B4: ATATT spacer dimer probe (dsDNA)
DNA 1: B3 DNA 1 with A14T
DNA 2: CGAATTAAATATTAATTAGTTGGA
DNA 3: AGCCACGCCCGCACTA
Turning to B4, the binding result with Gsx2 167-305 [8] is given as “binds”.

B5: AATTT spacer dimer probe (dsDNA)
DNA 1: B3 DNA 1 with A15T
DNA 2: CGAATTAAAATTTAATTAGTTGGA
DNA 3: AGCCACGCCCGCACTA
As to B5, the binding result with Gsx2 167-305 [8] is on record as “binds”.

B6: GCCGG spacer dimer probe (dsDNA)
DNA 1: B3 DNA 1 with A13G, A14C, A15C, T16G, T17G
DNA 2: CGAATTACCGGCTAATTAGTTGGA
DNA 3: AGCCACGCCCGCACTA
For B6, the binding result in the data set with Gsx2 167-305 [9] was “binds”.

B7: GCGGG spacer dimer probe (dsDNA)
DNA 1: B3 DNA 1 with A13G, A14C, A15G, T16G, T17G
DNA 2: CGAATTACCCGCTAATTAGTTGGA
DNA 3: AGCCACGCCCGCACTA
Turning to B7, the binding result with Gsx2 167-305 [9] is on record as “binds”.

B8: GGGCC spacer dimer probe (dsDNA)
DNA 1: B3 DNA 1 with A13G, A14G, A15G, T16C, T17C
DNA 2: CGAATTAGGCCCTAATTAGTTGGA
DNA 3: AGCCACGCCCGCACTA
With B8, the binding result with Gsx2 167-305 [9] was “binds”.

B9: TAATTA consensus monomer site 15mer (dsDNA)
DNA 1: TGAGCTAATTAAAGC
DNA 2: AGCTTTAATTAGCTC
The molecule B9 yielded a dissociation constant Kd in the data set with Gsx2HD I234E of 20 nM.
